Data taken from US20160068813A1, “DIFFERENTIATION OF ADIPOSE STROMAL CELLS INTO OSTEOBLASTS AND USES THEREOF” (Artecel Sciences Inc., priority 1997, published 2016).

System: stromal cells isolated from adipose tissue
Experiment: Effect of compounds on osteoblast differentiation of adipose stromal cells, measured by secreted osteocalcin
Format: cell-based, human
Conditions: differentiated as in Example 2 in presence and absence of compound; secreted osteocalcin assay; data not shown
Experimental: Adipose stromal cells were isolated as described in Example 1 and then treated as follows to induce differentiation into osteoblasts. Stromal cells were plated in 24-well and/or 6-well tissue culture plates in stromal cell medium (see above) at a density of about 22,000 cells/cm^2. After 24 hours, the stromal cell medium was replaced with osteoblast differentiation medium (DMEM with 10% fetal bovine serum (v/v); 10 mM β-glycerophosphate; 50 μg/ml ascorbate-2-phosphate; 60 U/ml penicillin; 60 U/ml streptomycin; 15 μg/ml amphotericin B). The osteoblast differentiation medium was replaced with fresh medium every 3 days for 3 weeks. When changing the media, one ml of conditioned media was collected and stored at −80° C. for later analysis of secreted factors. […]
Biochemical changes indicative of osteoblast differentiation were also assessed. Osteocalcin is an osteoblast-specific secreted protein that can be measured by ELISA (Intact Human Osteocalcin K EIA kit, catalog number BT-460, Biomedical Technologies, Inc., Stoughton, Mass.). […]
Cultures of stromal cells isolated from adipose tissue according to the method described in Example 1 were used to study the effect compounds of interest on osteoblast differentiation. […] Differentiation was measured by assays for secreted osteocalcin. […]

B1: bone morphogenetic protein 4: bone morphogenetic protein, known osteoblast differentiation promoting agent (protein, UniProt P12644 293-408, looked up)
Bone morphogenetic protein 4: SPKHHSQRARKKNKNCRRHSLYVDFSDVGWNDWIVAPPGYQAFYCHGDCPFPLADHLNSTNHAIVQTLVNSVNSSIPKACCVPTELSAISMLYLDEYDKVVLKNYQEMVVEGCGCR
B1 was tested, and the “effect on osteoblast differentiation” value was “positively affect osteoblast differentiation”.
